In US6342477B1, “Remedies for thrombocytopenia” (Chugai Seiyaku Kabushiki Kaisha, priority 1996, dated 2002):

Experiments:
Format in all cases: in vivo
C57Bl/6N mice [1] = assay: Test for single-dose administration to mouse (peripheral platelet count); conditions: single dose 10 μg/kg through the tail vein
Protocol: Nine-week old male C57Bl/6N mice as purchased from Japan Charles River Co. Ltd. were used in the experiment. (Preparation of Drug Solutions to be Administered) Human PTH(1-84) was dissolved in a citrate buffer (pH-5; containing 0.05% of Tween 80) at final concentrations of 1, 0.2 and 0.04 μg/mL so as to prepare the drug solutions to be administered.
Each of the thus prepared drug solutions and a control (citrate buffer) was administered to 15 mice through the tail vein in a volume of 10 mL/kg. […] The administration was initiated at 10 a.m.
After 3, 6 and 9 hours of the administration, five mice were picked up at random from each group of animals and blood samples were withdrawn through the orbital vein. At 10 a.m. on the same day, separate blood samples were taken from untreated mice (four in number) to obtain the pre-administration value. Peripheral corpuscle counts were obtained with an automatic corpuscle counter F-800 (TOA MEDICAL ELECTRONICS CO., LTD.)

C57Bl/6N mice [2] = assay: Test for daily administration to mouse (peripheral platelet count); conditions: for platelet count: day 5
Protocol: Nine-week old male C57Bl/6N mice as purchased from Japan Charles River Co., Ltd. were used in the experiment.
Drug solutions to be administered were prepared basically by the same procedure as in Example 1 to give drug concentrations of […].
The mice under test were divided into four groups, which were administered subcutaneously with the three drug solutions and a control (citrate buffer) once a day in a volume of 10 mL/kg. […] The administration was initiated at 10 a.m.
(Blood Sampling and Counting Peripheral Corpuscles) On days 5, 7 and 9 after the start of administration, five or six mice were picked up at random from each group of animals and blood samples were withdrawn through the orbital vein. The sampling of blood was timed to occur 24 h of the final administration. Separate blood samples were taken from untreated mice (five in number) to obtain the value for normal mouse. Peripheral corpuscle counts were obtained with an automatic corpuscle counter F-800 (TOA MEDICAL ELECTRONICS CO., LTD.)

C57Bl/6N mice [3] = assay: Effectiveness of PTH derivative, daily administration to mouse (peripheral platelet count); conditions: 200 μg/kg subcutaneously once a day for six days, blood 24 h after final administration
Protocol: Ten-week old male C57Bl/6N mice as purchased from Japan Charles River Co., Ltd. were used in the experiment.
Drug solutions to be administered were prepared basically from human PTH(1-84) and human PTH(1-34) by the same procedure as in Example 1 to give a drug concentration of 20 μg/mL.
Eighteen mice were divided into three groups, which were administered subcutaneously with the two drug solutions and a control (citrate buffer) for six days on a once-a-day basis in a volume of 10 mL/kg. […] The administration was initiated at 10 a.m.
After 24 h of the final administration, a blood sample was withdrawn from each mouse through the orbital vein. Peripheral corpuscle counts were obtained with an automatic corpuscle counter F-800 (TOA MEDICAL ELECTRONICS CO., LTD)

[4] = tested on: Japanese albino rabbits JW/CSK; assay: Test for daily administration to rabbit (platelet count); conditions: 200 μg/kg subcutaneously daily
Protocol: Six 12-15 week old male Japanese albino rabbits JW/CSK were used in the experiment. The animals were individually kept in aluminum rabbit bracket cages Rb-1 (350^w×500^d×350^h mm) in a vavarium in a specific pathogen-free environment under the following conditions: temperature, 24±2° C.; humidity, 50±10%; illumination, light turned on at 5:00 and turned off at 19:00; ventilation, 15 changes/hr. Each animal was supplied with 120 g of a radiation-sterilized feed for rabbits RM (purchased from Funahashi Farm) per day. The animals were also allowed to drink to tap water ad libitum from an automatic water feeder.
Human PTH(1-84) was administered in a volume of 2 mL/vial at a concentration of 200 μg/mL. A solvent was also supplied in a volume of 2 mL/vial. Both the drug and the control were stored at −135° C. until use.
PTH (200 μg/kg) was administered to the rabbits subcutaneously at the back of their neck for 13 consecutive days. The solvent was similarly administered in the same volume as the dose of a rh-PTH solution calculated from their body weight.
Blood samples (0.5 mL) were withdrawn from the rabbits through the lateral auricular vein before the administration and on days 2, 6, 9 and 13 during the administration period. […]

B1: human PTH(1-84) (protein, UniProt P01270 32-115, looked up)
Parathyroid hormone: SVSEIQLMHNLGKHLNSMERVEWLRKKLQDVHNFVALGAPLAPRDAGSQRPRKKEDNVLVESHEKSLGEADKADVNVLTKAKSQ
modifications: Parathyroid hormone
platelet counts over the control (C57Bl/6N mice [1]; 6 h after the administration): significant increase | platelet counts over the control (C57Bl/6N mice [1]; 9 h after the administration): significant increase | platelet count (C57Bl/6N mice [2]; 200 μg/kg subcutaneously once a day): tendency to increase | platelet count (C57Bl/6N mice [2]; 800 μg/kg subcutaneously once a day): tendency to increase | platelet count versus the control (C57Bl/6N mice [2]; all treated groups (50, 200, 800 μg/kg subcutaneously once a day), day 7): significantly higher | platelet increasing action (C57Bl/6N mice [3]): platelet increasing action | platelet count relative to the initial level ([4]; day 13): substantially returned to the initial level | platelet count relative to the initial value ([4]; increase from day 2 until day 6): two to four
